According to the DeepSol protein solubility set:

Assay: soluble on expression in E. coli; label from the status in PepcDB or PDB records

Row | Sequence | soluble on expression in E. coli
1 | MSLRKGNEIELLVEGIEFPAKGFGFVDGLKVYAKNTFPGQKVFGRVTKKRKEYAEIRVSEVREKASYEEDQKCPHFGVCGGCSSQTIPYEKQLELKVEQVKDLFKEAEVPTGEFLGIETSPIQWEYRNKMEYTFGDEEKGGELTLGMHMKGKSFGIVNVDKCVLVDEDFRNILDTTVKYFREKGLPFYKIMPRTGYLRYLVVRKSVKTEEILVNLVTTTQIDFDLTEFTELIKGLNLKGKLKSIIHTESDALSEAVIPEKVNILYGDDFITENLLGLNFKISPFSFFQTNSLGAEKLYSIVRDFMGAADNKVVFDLYCGTGTIGQIAAGKASKVIGIELIEEAAMAANENAKLNGLNNCNFIAGDVAEVIKTVKDKPDIIILDPPRSGVHPKALDYVIKFNAPQIIYVSCNPKTLVTDLKVLEAKGYEIEKTLLMDMFPNTPHVETVVKLNKKEGHHHHHH | soluble
2 | GPGSMPSPLVLTRAAPARGLNVKMFDRKVKGLQRSFVSSPACDLHKLCAQQMLDRRTFVKRDTPVVLEVGAHTGWYLRHMIERKEFHGLKQYIQTDISEDRLNRNYEEIKNIIPPEVEFVQICCDEEQPSPFGIPDKSVDMVVSCLSMHWVNDLETSMVNVRKVLKRDGFFLNAMFGGNTLYELRGCFSMAQTETLGGVSPHVSPMIDGAGLSTLVLQAGFNIPTIDLDRHLLLYETPFHLMEHLAVMGESACHYMRQPMKRDVLLCACAIYDTMYKQNGLFPATFEVFHTIAWSPSPTQAKPLARGSGQIPLSSWNSKSRKQLQSVLDEYALNPNDEVLQNKAEDIFKKLREESAELMAKKGLDSRGFERDRDEEARRLDEKPVPPFQ | not soluble
3 | MSLSITHQPANLTLAQIQQMIGGVMLLSQHSPLHRRYVVAEWLQRILPAFELNQFCYYEDEHGRPIAFCNWAFVSEQIRDELLSGVREISPSDWRSGQQIYIPEMIAPFGHGREVVNDLRRRVFLPWQGQKVCTVRGKVDAQNDRCIRKVQWFSIEGHHHHHH | soluble
4 | MGSDKIHHHHHHMRIIILSSSTNRSGGTRQAFYQARELATRGHHVSLCLPEDSQMHGMGYDDLIVTLPADRKRWKASIEALFAADGPTVVHAFHNRAVKFVAWHGMFWRHRGVVCCAHRGVMYRPGNPLPYISPGMDAFIANSQACARVLRLFTPAGKLFVVYNGVDDARVTPRTPADTAREQVGLPPRGAEAAWSSSSPAPLVFGFVGQNSPVKGADILIDAFARADVGEARLLMVGVSHDMWRPRCEALGIADRVHLVPHTESVSDMLQLMDAFVLPSRTESLPNTMLEAIRMGLPVIGSAVGGVPELVRGNGLLFPAGDIDALAAALGRMASDHATREAWAAASHAEGERYTIHARVDALEDIYAQLLRRRGLHTA | not soluble
5 | YWGPLDVGEAKSLPGMEDPKLVYIPSIAPSNMVLYRGDKYSELDGKILVGALKLTHINVVGINDGKLTESQRLLEKLGERIRDITISPDGYIYFSTDSGKIFRLTEQ | not soluble
6 | SAENERMYISYNNIHKLCQGVAKHILARNERPDIIIAITGGGMIPARIIRSFLKTKGQKNIPIQAIGLSLYEDLGLDNSVETIGKEVIRTQWLDFGALNQHFDSLIGKKVLIVDEVDDTRTTLHYAVSELEKEIAEQQKVLNRMSEETVISIFVLHNKDKPKRAGLPDSMMNSGRYIAAQTVPDKWLCYPWDAEDIEEHTMLAKAQGHD | soluble
7 | MKIGIIGAGFVARAIAKLALQNGHQVMLSNSRDPQSLFSLRPMIGCDIGTATQAALFGDIIVIAVPFTAIDKLPEQALQGKSVIDAVNYYTERDGKVAALDTRSTTTSELLAGYLPGAKITKAFNAITMTQLERDGLPAGSAHRRALPLAGDHEQEKTIVAELYDAFGFDVVDAGKLSEGWRFERNMPSYCVRMTKAELTTALALSSRLEHHHHHH | soluble
8 | MGSDKIHHHHHHENLYFQGLLPKYNILTEDQVQKIHENTMKILEEIGIEFEYEPALEVFRREGQKVEGKRVYLTREFVESKLKSAPAEFTLHARNPENNVVIGGDNIVFMPGYGAPFIYELDGSRRKTTLQDYENFAKLAGASKNMHLSGGTMAEPQDIPDGVRHLQMLYSSIKNSDKCFMGSAEGKERAEDSVEIAAILFGGKDVIKEKPVLVSLINSLTPLKYDERMLGALMAYAEAGQAVIIASLVMAGSTGPASLAGTLSLQNAEVLAGISLAQSINPGTPVIYGSTSALSDMRSGSLSIGSPECALFISASAQLARFYGVPSRSGGGLNDSKTVDAQAGYESMMTLMAANLTGVNFVLHTAGILQYFMAMSYEKFIMDDEIAGMLLHYMKGYTFDEDGMAFDVIEKVGPGGHFLTQKHTRKNHKREFYTPTLSDRSAYDTWAKEKLETKQRAHARWQQILANYVPPALDPEIDAKLQAFIAQRGKEVGEE | soluble
9 | MDTVVMSWWDFGHLFAVAADRPVTFDGGSQNTPRAYWIGKALTTSNETLSRGILTMLSTSGDLAYETLDNYTDDSGKTAEILTATLGLPREEARAVMTGRYGLSDKEADSVLRYSHPAKPKPFVLVLSSDMLGKAPWWTYFGTWDFKKKTGSRLEHHHHHH | not soluble
10 | SSLDDKPQFPGASAEFIDKLEFIQPNVISGIPIYRVMDRQGQIINPSEDPHLPKEKVLKLYKSMTLLNTMDRILYESQRQGRISFYMTNYGEEGTHVGSAAALDNTDLVFGQYREAGVLMYRDYPLELFMAQCYGNISDLGKGRQMPVHYGCKERHFVTISSPLATQIPQAVGAAYAAKRANANRVVICYFGEGAASEGDAHAGFNFAATLECPIIFFCRNNGYAISTPTSEQYRGDGIAARGPGYGIMSIRVDGNDVFAVYNATKEARRRAVAENQPFLIEAMTYAIGHASTSDDSSAYRSVDEVNYWDKQDHPISRLRHYLLSQGWWDEEQEKAWRKQSRRKVMEAFEQAERKPKPNPNLLFSDVYQEMPAQLRKQQESLARHLQTYGEHYPLDHFDK | soluble
11 | MRPARALIDLQALRHNYQLAREVTGAKALAVIKADAYGHGAVRCAQALEAEADGFAVACIEEALELRAAGIRAPILLLEGFFEADELPLIVEHDFWCVVHSLWQLDAIEQARLAKPIHVWLKLDSGMHRVGLHPNDYKAAYQRLQASANVAKIVLMSHFARADELDCTRSVEQVAVFLGARADLTAEISLRNSPAVLGWPRVPSDWVRPGLMLYGSSPFDEPQATASRLQPVMTLESKVICVRELPAGEPVGYGARFITPKPMRIGVVAMGYADGYPRQAPTGTPVFVDGVRSQLLGRVSMDMLCIDLTDVPQAGLGSTVELWGKNILASEVATAADTIPYQIFCNLKRVPRLYSGN | soluble
12 | MAHHHHHHMKRPWGESVGTQSNHTRTDGVQEPSASAELAASANDDTQVRSDGRNVRVRSSGSPRTIDTGNGGGSTVVSPQRQLSDQRLPQASSRHELLEGTSEFLLRTEGNIPCSFGNVPKDSIGYESQCCWNLYNNTGTTHYEPPWRTCLAVEKNRENPYYLPWLDSMKIPPLDELLSKVDERKSKAATSGDVDSGTNDSNVKDGSTKHAD | soluble
13 | MAHHHHHHMSSTASPNAALLAEINDLKVKLAEKEALLQPEGVVSKKSKKKSQANMIEKEPVQGCRDFPPEDMRVRRHLFGVFHETARKFGFEEYDAPVLESEELYIRKAGEEITDQMFNFVTKGGHRVTLRPEMTPSLVRLQLAKGRSLLLPAKWYSIPQCWRYEAISRGRRREHYQWNMDIVGVKSVAAEVELVCAACAAMESLGLTAQDVGVKVNSRKLLQCALAGAGVPDSLFAPVCVIVDKMEKLPEEQIRAELEDLALDGQQADDIIRTLSLRSVDDFDKNLFDKNGALSELAEFFSQMQMYGYGDWIQFDASVVRGLAYYTGIVFEAFDRSGEFRAIYGGGRYDNLFTLYGSPQPISCVGFGFGDCVIIELLKKKKLINSLPHKVDDVVIPFNESQRGTALKVLKQLRDKGRSADIIMDSKKVAQTFSYADRIGADRAVLIAPDETEKGMARVKMLREGQRGEDDRGDLVPFEDL | soluble
14 | SKLLDKDGKVFAEVGTERREYIEYKDIPETLKNAILTTEDARFYEHDGIDPIRLGGAVVANVTDGFGAEGASTLSQQIIKMSYLDYTNKTLARKAQEAWLALQLEEKYSKNDILEIYVNKVYMSDRVHGMQTAAEHYFGKNVKDLTLAETALLAGMPQSPNNYNPYDHP | not soluble
15 | MDDPVADQPDGTDETPDGDTAGSSPIGLADAQARAREAVAELLEHPFDGIITAESGADGGWRILAEVVERSAVPDTQDIIGRYEITLDDGGRVLEHHHHHH | not soluble
16 | MGSDKIHHHHHHMKSFRNIMGDSQNLDKRIQKIKQNVINDTDVKHFLEKNRSNITNEMIDEDLNVLQEYKDQQKVYDGHRYDDCPNFVKGHVPELYIENERIKIRYLPCPCKIKHDEERFDSQLITSHHMQRDTLHAKLKDIYMNNRERLDVAMAADQICTAITNDEKVKGLYLYGPFGTGKSFILGAIANQLKSQKISSTIVYLPEFIRTLKGGFKDGSFEKKLQRVREANILMLDDIGAEEVTPWVRDEVIGPLLHYRMVHELPTFFSSNFNYSELEHHLSITRDGTEKTKAARIIERIKTLSTPYYLTGKNFRNN | not soluble
17 | MSLTDIHPPLLLIDTSTRVCSVAVAAAGTIISQRVSHVGNSHAANIGVFVQEVLTEAIGLGVKPSIVALSSGPGSYTGLRIGSSIAKGICFGLGIPLVSVPTLELIAEAARPLSQPDWLICPMIDARRMEVYTALFDSKGKALTDTLPLVIDNDSFSEELKKRNILFVGDGAEKCRPFLSHPNAHFSKNVIYPLALYMLHPALSRIETSSYEDVAYWEPFYLKEFVATVAKNKVIPRTQTTEGHHHHHH | not soluble
18 | MQITSNTRLNELWELYFQTLDKSTSWTFTKESFYNRYLKEPLGKKKLDSIQEHHIMAIIRHLQAEGMATRTVNTTLEILRPLFDFAIKNKALRDNPTRFIVLKKDNLEHHHHHH | not soluble
19 | MGHHHHHHSHMCNTPTYCDLGKAAKDVFNKGYGFGMVKIDLKTKSCSGVMEFSTSGHAYTDTGKASGNLETKYKVCNYGLTFTQKWNTDNTLGTEISWENKLAEGLKLTLDTIFVPNTGKKSGKLKASYKRDCFSVGSNVDIDFSGPTIYGWAVLAFEGWLAGYQMSFDTAKSKLSQNNFALGYKAADFQLHTHVNDGTEFGGSIYQKVNEKIETSINLAWTAGSNNTRFGIAAKYMLDCRTSLSAKVNNASLIGLGYTQTLRPGVKLTLSALIDGKNFSAGGHKVGLGFELEA | not soluble
20 | MGSDKIHHHHHHMDFDMIEEKKDSVIVRNVENFELKDIFDCGQCFRWHRQENGNYIGIAFEKVVEVQKIGEDVVIYNINEEEFKNVWSEYFDLYRDYGEIKKELSRDPLLKKSVDFGEGIRILRQDPFEILLSFIISANNRIPMIKKCINNISEKAGKKLEYKGKIYYAFPTVDKLHEFTEKDFEECTAGFRAKYLKDTVDRIYNGELNLEYIKSLNDNECHEELKKFMGVGPKVADCIMLFSMQKYSAFPVDTWVKKAMMSLYVAPDVSLKKIRDFGREKFGSLSGFAQQYLFYYARENNIQL | not soluble
21 | SGGTSSSTAHLAVVNIIGTIDSSNQSVNSEDTNKALERAFEAKNSKAVALNINSPGGSPVQSDEIWQEIRYLKKQHPDKKVYAVIGDMGASGAYYIASAADEIIVNPSSLVGSIGVIMPNYGITGLAQKLGIEDRTLTSGSNKDILSMTKPVNPAQREHIQSVLDNVHAHFINAVKEGRGTRLKSNDPAIFSGLFWTGEQAIQLGVAD | not soluble
22 | MGSDKIHHHHHHMNRFIIADASKCIGCRTCEVACVVSHQEHQDCASLTPHTFQPRIHVIKGVNVSTATACRQCEDAPCANVCPNGAISRDKGFVHVMQERCIGCKTCVVACPYGAMEVVVRPVIRHSGAGLNVVAEKAEANKCDLCFHRESGPACMEVCPTHALVCVDRNKLEQMNIEKRRRTALAW | not soluble
